Test results as given in patent US20190290686A1.

Target: T cell receptor of CD8+ T cells from OT1 transgenic mice (ova-specific T cells)
Assay: cell-based or functional assay

With “H-2Kb SIINFEKL-DBCO-Thiolinker monomer clicked onto azido-labeled murine erythroid cells (from UniProt P01901 22-305) (peptide-MHC)” the expansion of OT1 cells in vivo after a second aAPC dose (FIG. 6) was > 200 fold.
